Experimental data published in publication PMC9786777, “Phosphorylation of Thr9 Affects the Folding Landscape of the N-Terminal Segment of Human AGT Enhancing Protein Aggregation of Disease-Causing Mutants” (Molecules, 2022).

B1: alanine:glyoxylate aminotransferase (AGT) WT, holo-protein (enzyme, human, UniProt P21549 1-392, looked up)
chain: MASHKLLVTPPKALLKPLSIPNQLLLGPGPSNLPPRIMAAGGLQMIGSMSKDMYQIMDEIKEGIQYVFQTRNPLTLVISGSGHCALEAALVNVLEPGDSFLVGANGIWGQRAVDIGERIGARVHPMTKDPGGHYTLQEVEEGLAQHKPVLLFLTHGESSTGVLQPLDGFGELCHRYKCLLLVDSVASLGGTPLYMDRQGIDILYSGSQKALNAPPGTSLISFSDKAKKKMYSRKTKPFSFYLDIKWLANFWGCDDQPRMYHHTIPVISLYSLRESLALIAEQGLENSWRQHREAAAYLHGRLQALGLQLFVKDPALRLPTVTTVAVPAGYDWRDIVSYVIDHFDIEIMGGLGPSTGKVLRIGLLGCNATRENVDRVTEALRAALQHCPKKKL
modifications: PLP covalently bound to K209 (holo-protein)
notes: alanine:glyoxylate aminotransferase (AGT), human, 392 residues; also called holo-AGT
B2: AGT WT with the T9E mutation, holo-protein (enzyme, human, UniProt P21549 1-392, looked up)
chain: MASHKLLVEPPKALLKPLSIPNQLLLGPGPSNLPPRIMAAGGLQMIGSMSKDMYQIMDEIKEGIQYVFQTRNPLTLVISGSGHCALEAALVNVLEPGDSFLVGANGIWGQRAVDIGERIGARVHPMTKDPGGHYTLQEVEEGLAQHKPVLLFLTHGESSTGVLQPLDGFGELCHRYKCLLLVDSVASLGGTPLYMDRQGIDILYSGSQKALNAPPGTSLISFSDKAKKKMYSRKTKPFSFYLDIKWLANFWGCDDQPRMYHHTIPVISLYSLRESLALIAEQGLENSWRQHREAAAYLHGRLQALGLQLFVKDPALRLPTVTTVAVPAGYDWRDIVSYVIDHFDIEIMGGLGPSTGKVLRIGLLGCNATRENVDRVTEALRAALQHCPKKKL
modifications: PLP covalently bound to K209 (holo-protein)
notes: alanine:glyoxylate aminotransferase (AGT), human, 392 residues, phosphomimetic T9E; also called T9E (WT background)
B3: AGT WT with the T9A mutation, holo-protein (enzyme, human, UniProt P21549 1-392, looked up)
chain: MASHKLLVAPPKALLKPLSIPNQLLLGPGPSNLPPRIMAAGGLQMIGSMSKDMYQIMDEIKEGIQYVFQTRNPLTLVISGSGHCALEAALVNVLEPGDSFLVGANGIWGQRAVDIGERIGARVHPMTKDPGGHYTLQEVEEGLAQHKPVLLFLTHGESSTGVLQPLDGFGELCHRYKCLLLVDSVASLGGTPLYMDRQGIDILYSGSQKALNAPPGTSLISFSDKAKKKMYSRKTKPFSFYLDIKWLANFWGCDDQPRMYHHTIPVISLYSLRESLALIAEQGLENSWRQHREAAAYLHGRLQALGLQLFVKDPALRLPTVTTVAVPAGYDWRDIVSYVIDHFDIEIMGGLGPSTGKVLRIGLLGCNATRENVDRVTEALRAALQHCPKKKL
modifications: PLP covalently bound to K209 (holo-protein)
notes: alanine:glyoxylate aminotransferase (AGT), human, 392 residues, control mutation T9A; also called T9A (WT background)

Columns and labels:
[1] = target: alanine:glyoxylate aminotransferase (AGT) NTT, 1-21 (UniProt P21549); assay: NMR translational diffusion (DOSY), self-association; conditions: sites T9
[2] = target: the molecule itself; assay: dynamic light scattering; holo-AGT as purified, 10 µM (in subunit), Na-HEPES 20 mM NaCl 200 mM pH 7.4, 25 °C; hydrodynamic radius compared with the dimer of the crystal structure

Molecule | binding result [2] | further results
alanine:glyoxylate aminotransferase (AGT) NTT, 1-21 (from UniProt P21549) NTT-AGT T9E-P11L peptide | – | other: hydrodynamic radius ([1]; reference: NTT-AGT P11L peptide): none in both; reference 12 ± 2
alanine:glyoxylate aminotransferase (AGT) NTT, 1-21 (from UniProt P21549) NTT-AGT T9E peptide | – | other: hydrodynamic radius ([1]; reference: NTT-AGT WT peptide): none in both; reference 12 ± 2
B1 | binds | –
B2 | binds | –
B3 | binds | –
